Experimental data published in patent publication US20090117593A1, “T. Cruzi-derived neurotrophic agents and methods of use therefor” (Tufts University, priority 2006, published 2009).

Experiments:
PC12 cells = experiment: Protection of PC12 cells from apoptosis induced by trophic factor withdrawal (DAPI, TUNEL); type: cell-based; details: serum-free RPMI-1640/0.2% BSA, 17 hours, DAPI or TUNEL
Text: PC12 cells were obtained from ATCC (Manassas, Va. (Accession No. CRL-1721)) and cultured on collagen-coated dishes in RPMI 1640 supplemented with 10% horse serum and 5% fetal bovine serum (Greene, L., and Tishler, A., Proc. Natl. Acad. Sci. USA, 73:2424-2428 (1976)). For differentiation and survival experiments, cells were washed three times in serum-free RPMI/0.2% BSA, plated in the same medium in collagen-coated plastic dishes at 2×10^5/ml, without and with growth factors, TS, recombinant proteins, synthetic peptides, for the time and concentrations indicated in the Figures.
Cell staining with 4,6-diamino-2-phenylindole (DAPI). Cells were fixed with 4% formaldehyde in PBS for 5 minutes, washed with PBS, stained with 10 μg/ml DAPI (Sigma) for 2 minutes, washed with PBS, and visualized under UV light using a fluorescent microscope. About 300-400 cells were examined under the microscope to determine the percentage of apoptotic cells.
Cell DNA nick end labeling (TUNEL) (Gavrieli, Y. et al., J. Cell. Biol., 119:493-501 (1992)) assay was performed using a kit purchased from Boehringer Mannheim as described by the manufacturer.
Protection against apoptosis of PC12 cells in serum-free medium containing a test agent (agent N) (e.g., protection induced by TS, TS fragments, NGF or other growth factors), was calculated by the formula: 100%−[(apoptosis(%) of cells kept in RPMI containing test agent N÷apoptosis (%) of cells kept in RPMI)×100%]. Testing the effect of Wortmannin (Sigma) and LY294002 (Sigma) in inhibiting the neuroprotection of TS was performed following the protocol described by others (Yao, R., and Cooper, G., Science, 267:2003-2006 (1995); D'Mello, et al., J. Neurosci., 17:1548-1560 (1997)). In brief, PC12 cells were switched from growth medium to RPMI without and with TS or various other growth factors. After 24 hours, Wortmannin and LY294002 were added to the cultures. After another 24 hours, cells were examined for apoptosis by the DAPI assay, as above.

Bcl-2 = Bcl-2 gene expression in PC12 cells by RT-PCR; type: cell-based, rat; details: TS 2.5 ng/ml, CNTF 50 ng/ml, alone or combined, 17 hours
Method: Total RNA was extracted from PC12 cells by the acid guanidinum isothiocyanate method (Chomchinski, P., Biotechniques, 15:532-535 (1993)) using TRI-reagent (Molecular Research Center, Inc.) cDNA synthesis was performed according to the instruction of the manufacturer (Gibco-BRL). Reverse transcription reactions were carried out for 50 minutes at 42° C. and were heated to 70° C. for 15 minutes to terminate the reaction using a MiniCycler (MJ Research). Samples were cooled to 4° C. and stored at −20° C. until use.
PCR reactions were performed in 50 μl containing 1.5 μl of template DNA (corresponding to cDNA synthesized from 100 ng of total RNA), 1×PCR buffer, 100 μM of deoxynucleotides, 2.5 mM MgCl2, 10 mM DTT, 10 μM of Bcl-2 primers, and 2 U of Taq DNA polymerase (Gibco-BRL). The synthetic DNA primers for the rat Bcl-2 were: 5′-[…]-3′ (SEQ ID NO:8) and 5′-[…]-3′ (SEQ ID NO:9) to give a PCR product of 566 bp. The sequences for synthetic GAPDH DNA primers (Wong, H. et al., Anal. Biochem., 223: 251-258 (1994)) were: 5′-[…]-3′ (SEQ ID NO:10) and 5′-[…]-3′ (SEQ ID NO:11) giving a PCR produce of 306 base pairs. […] Gels were analyzed by computerized densitometric scanning using Gel doc 1000 (Bio Rad) and Molecular Analyst Software, version 2.1.

B1: CNTF: human ciliary neurotrophic factor; recombinant human and rat CNTF (protein, UniProt P26441 1-200, looked up)
Ciliary neurotrophic factor: MAFTEHSPLTPHRRDLCSRSIWLARKIRSDLTALTESYVKHQGLNKNINLDSADGMPVASTDQWSELTEAERLQENLQAYRTFHVLLARLLEDQQVHFTPTEGDFHQAIHTLLLQVAAFAYQIEELMILLEYKIPRNEADGMPINVGDGGLFEKKLWGLKVLQELSQWTVRSIHDLRFISSHQTGIPARGSHYIANNKKM
PC12 cells
  protection of PC12 cells from apoptosis induced by trophic factor withdrawal: produced little, if any, protection
Bcl-2
  bcl-2 mRNA expression in PC12 cells: did not induce bcl-2 gene expression individually
